Measurements: patent US20090324601A1 (published 2009)
Substitutions are numbered along the chain they refer to.

B1: 3.818.4 (antibody, V domains shown)
VH: EVQLVESGGGLVQPGGSLRLSCAASGFTFSSYSMNWVRQAPGKGLEWVSYISGSSTTMYYADSVKGRFTISRDNAKNSLYLQMNSLRDEDTAVYYCARLRHFDWSYAFDIWGQGTMVTVSS
VL: DIQMTQSPSSVSTSVGDRVTITCRASQGISSWLAWYQQRPGKAPKLLIYAASSLQSGVPSRFSGSGSGTDFTLTISSLQPEDFATYFCQQATSFPFTFGPGTKVGIK
B2: 3.457.3.1 (antibody, V domains shown)
VH: QVQLVESGGGVVQPGRSLRLSCAASGFTFSSYGMHWVRQAPGKGLEWVAVIWYDRSNKYYADSVKGRFTISRDNSKNTLYLQMNSLRAEDTAVYYCAGGRSRGAFDFWGQGTLVTVSS
VL: DIQMTQSPSSVSASVGDRVTITCRASQGISSWLAWYQQKAGKAPKLLIYSASSLQSGVPSRFSGSGSGTDFTLTISSLQPEDFATYYCQRTNSFPRTFGQGTKVEIK
B3: 3.23.3 (antibody, V domains shown)
VH: QVQLVESGGGVVQPGRSLRLSCAASGFTFSRYGMHWVRQAPGKGLEWVAVIWYDGRNKYYVDSVKGRFTISRDNSKNTLYLQMNSLRAEDTAVYYCVGVGITVTGAFDYWGQGTLVTVSS
VL: EIVMTQSPATLSVSPGERATLSCRASQSVRSNLAWYQQKPGQAPRLLIYGASTRVTDIPTRFSGSGSGTEFTLSISSLQSEDFAVYYCQQYNNWPRTFGQGTKVEIK
B4: 5.1.1.1 (antibody, V domains shown)
VH: QVQLVQSGAEVKKPGASVKVSCKASGYTFTSYDINWVRQATGQGLEWMGWMNPNSGNTGYAQQFQGRVTMTRNTSITTAYMELSSLRSEDTAVYYCAREEYSSSLFDSWGQGTLVTVSS
VL: DIQMTQSPSSLSASVGDRVTITCRASQGIRNNLGWFQQKPGKAPKRLIYAASSLQSGVPSRFSGSGSGTKFTLTISSLQPEDFATYFCLQHNRYPLTFGGGTKVEIK
B5: 4.16.2 (antibody, V domains shown)
VH: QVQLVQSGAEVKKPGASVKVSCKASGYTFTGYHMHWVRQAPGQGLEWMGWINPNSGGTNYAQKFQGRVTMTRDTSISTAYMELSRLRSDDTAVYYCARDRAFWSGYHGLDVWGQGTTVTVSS
VL: DIQMTQSPSSLSASVGDRVTITCRASQVIANYLAWYQQKPGKVPKLLIYAASTLQSGVPSRFSGSGSGTDFTLTISSLQPEDVATYYCHTYKSAPWTFGQGTKVEIK
B6: 3.87.1.1 (antibody, V domains shown)
VH: B2 VH with F107Y
VL: B2 VL with A40P, Y49F, S50A
B7: 2.1576.1.2 (antibody, V domains shown)
VH: EVQLVESGGGLVQPGGSLRLSCAASGFTFSSYWMSWVRQAPGKGLEWVANIKQDGSEKYYVDSVKGRFTISRDNAKNSLYLQMNSLRAEDTAVYYCARWGVFGSGSYYIPFDYWGQGTLVTVSS
VL: B4 VL with N32Y, G34A, R46S, R61T, K70H, T85S, L89Q, H91Y, N92E, R93I
B8: 3.472.1.1 (antibody, V domains shown)
VH: B2 VH with A61V, F107Y
VL: B2 VL with G28D, A40P, Y49F, S50A, N92S
B9: 3.805.1.3 (antibody, V domains shown)
VH: B2 VH with F107Y
VL: B2 VL with A40P, K45N, S50A, S93N
B10: 3.772.2 (antibody, V domains shown)
VH: B2 VH
VL: B2 VL with G28D, S50A
B11: 5.9.3 (antibody, V domains shown)
VH: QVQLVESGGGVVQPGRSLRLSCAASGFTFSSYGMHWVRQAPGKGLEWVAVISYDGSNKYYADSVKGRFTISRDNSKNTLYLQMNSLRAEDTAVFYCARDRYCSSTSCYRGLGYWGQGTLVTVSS
VL: DIQMTQSPSSLSASVGDRVSITCRASQGIRNDLGWYQQKPGKAPTRLIYAASSLQSGVPSRFSGSGSGTEFTLTISSLQPEDFASYYCLQHNSFPWTFGQGTKVEIK
B12: 3.23.2 (antibody, V domains shown)
VH: EVQLVESGGGLVQPGGSLRLSCAASGFTFSNFWMSWVRQAPGKGLEWVANIKHGGSEKYYVDSVKGRFTISRDNAKNSLYLQMNRLRAEDTAVYYCARDPMYYFDYWGQGTLVTVSS
VL: B11 VL with S20T, G28D, G34D, T45K, S85T, S93G, F94Y, W96R, T97S, V104L
B13: 2.1954.2 (antibody, V domains shown)
VH: QVQLVESGGGVVQPGRSLRLSCAASGFSFSIYGMHWVRQAPGKGLEWVAVIWFDGSNKYYADSVKGRFTISRDNSKNTLYLQMNSLRAEDTALYYCARDKASYYGSGMDYWGQGTLVTVSS
VL: EIVLTQSPGTLSLSPGERATLSCRASQSVSSTYLAWYQHRPGQAPRLLISGASRRATGIPDRFSGSGSGTDFTLTISRLEPEDFAVYYCQHYGSSFTWTFGQGTKVEIK
B14: 3.625.1.7 (antibody, V domains shown)
VH: B2 VH with N84D, F107Y
VL: B2 VL with A40P, S50A
B15: 2.2002.3 (antibody, V domains shown)
VH: QVQLVESGGGVVQPGRSLRVSCAASGFMFRSYGMHWVRQAPGKGLEWVAVIWHDGSNKNHGDSVKGRFTISRDNSKNTLYLQMNSLRAEDTAVYYCARGRLAGGGPYYYYYYGMDVWGQGTTVTVSS
VL: not shown
B16: 3.87.1.1 (antibody, V domains shown)
VH: B2 VH with F107Y
VL: B2 VL with A40P, Y49F, S50A
B17: 2.1954.2 (antibody, V domains shown)
VH: B13 VH
VL: B13 VL
B18: 2.2002.3 (antibody, V domains shown)
VH: B15 VH
VL: not shown
B19: 3.818.4 (antibody, V domains shown)
VH: B1 VH
VL: B1 VL
B20: 3.457.3.1 (antibody, V domains shown)
VH: B2 VH
VL: B2 VL
B21: 3.472.1.1 (antibody, V domains shown)
VH: B2 VH with A61V, F107Y
VL: B2 VL with G28D, A40P, Y49F, S50A, N92S
B22: 3.805.1.3 (antibody, V domains shown)
VH: B2 VH with F107Y
VL: B2 VL with A40P, K45N, S50A, S93N
B23: 3.772.2 (antibody, V domains shown)
VH: B2 VH
VL: B2 VL with G28D, S50A
B24: 2.796.2 (antibody, V domains shown)
VH: QVQLVESGGGLVKPGGSLRLSCAASGFTFSDYYMNWIRQAPGKGLEWVSYISSSGSIIYYADSVKGRFTISRDNAKNSLYLQMNSLRAEDTAVYYCARDGHIAARGMDVWGQGTTVTVSS
VL: DIQMTQSPSSLSASVGDRVTITCRASQSFSRYINWYQQKPGKAPKLLIYAASSLQGGVPSRFSGSGSGTDFTLTISSLQPEDFATYYCQQTYSNPPITFGQGTRLEIK
notes: Variable regions only

How the values were obtained:
[1] = target: PDGFR-alpha on human osteosarcoma MG-63 cells (human, UniProt P16234 24-1089); test: cell-based or functional assay
Chain of PDGFR-alpha on human osteosarcoma MG-63 cells (P16234 24-1089): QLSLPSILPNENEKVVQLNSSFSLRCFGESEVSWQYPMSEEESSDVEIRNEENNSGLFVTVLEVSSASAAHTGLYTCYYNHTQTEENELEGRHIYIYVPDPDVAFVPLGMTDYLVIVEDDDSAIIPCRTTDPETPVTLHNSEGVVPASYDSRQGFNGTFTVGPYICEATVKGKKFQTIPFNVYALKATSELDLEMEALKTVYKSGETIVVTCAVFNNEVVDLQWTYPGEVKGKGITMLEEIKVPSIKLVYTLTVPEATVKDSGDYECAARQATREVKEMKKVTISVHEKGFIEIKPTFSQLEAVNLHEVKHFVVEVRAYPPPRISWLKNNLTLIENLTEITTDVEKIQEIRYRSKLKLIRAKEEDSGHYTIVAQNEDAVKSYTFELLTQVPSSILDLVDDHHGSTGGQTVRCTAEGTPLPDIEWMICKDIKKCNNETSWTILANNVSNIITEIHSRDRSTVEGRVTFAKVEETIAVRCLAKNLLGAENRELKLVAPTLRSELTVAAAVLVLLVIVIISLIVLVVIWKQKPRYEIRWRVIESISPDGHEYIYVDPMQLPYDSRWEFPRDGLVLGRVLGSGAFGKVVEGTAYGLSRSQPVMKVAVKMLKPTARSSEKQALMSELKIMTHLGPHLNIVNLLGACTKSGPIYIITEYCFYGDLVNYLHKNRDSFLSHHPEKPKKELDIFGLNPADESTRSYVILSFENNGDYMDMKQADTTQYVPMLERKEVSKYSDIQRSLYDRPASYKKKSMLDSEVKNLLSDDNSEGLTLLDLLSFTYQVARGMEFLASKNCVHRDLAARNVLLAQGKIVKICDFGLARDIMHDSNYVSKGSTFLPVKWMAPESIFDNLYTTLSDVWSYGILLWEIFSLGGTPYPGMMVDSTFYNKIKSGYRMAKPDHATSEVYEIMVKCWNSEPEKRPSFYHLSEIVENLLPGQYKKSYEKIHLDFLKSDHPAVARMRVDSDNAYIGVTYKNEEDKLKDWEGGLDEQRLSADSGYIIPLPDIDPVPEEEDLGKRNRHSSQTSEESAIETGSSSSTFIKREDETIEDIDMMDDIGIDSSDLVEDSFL

[2] = target: PDGFR-alpha on MG-63 cells (human, UniProt P16234 24-1089); test: cell-based or functional assay
Chain of PDGFR-alpha on MG-63 cells (P16234 24-1089): as above

PDGFR-beta = PDGFR-beta (UniProt P09619 33-530, limits assumed); test: method not described
Chain of PDGFR-beta (P09619 33-530 limits assumed): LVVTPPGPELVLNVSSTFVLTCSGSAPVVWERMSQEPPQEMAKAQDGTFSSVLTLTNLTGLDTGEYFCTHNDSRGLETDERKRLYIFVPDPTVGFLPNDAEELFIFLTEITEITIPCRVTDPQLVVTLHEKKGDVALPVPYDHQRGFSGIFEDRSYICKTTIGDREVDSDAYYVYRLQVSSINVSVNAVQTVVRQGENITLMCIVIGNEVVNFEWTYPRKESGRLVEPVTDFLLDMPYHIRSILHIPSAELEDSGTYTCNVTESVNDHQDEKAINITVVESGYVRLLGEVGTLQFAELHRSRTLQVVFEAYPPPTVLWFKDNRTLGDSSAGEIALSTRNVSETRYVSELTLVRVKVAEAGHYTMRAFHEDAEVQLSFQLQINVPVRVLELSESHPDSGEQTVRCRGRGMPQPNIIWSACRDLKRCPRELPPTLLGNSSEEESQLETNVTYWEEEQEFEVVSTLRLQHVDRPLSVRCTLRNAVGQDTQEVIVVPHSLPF

FLT3 = FLT3 (UniProt P36888 27-541, limits assumed); test: method not described
c-kit = c-kit (UniProt P10721 26-520, limits assumed); test: method not described
Chain of c-kit (P10721 26-520 limits assumed): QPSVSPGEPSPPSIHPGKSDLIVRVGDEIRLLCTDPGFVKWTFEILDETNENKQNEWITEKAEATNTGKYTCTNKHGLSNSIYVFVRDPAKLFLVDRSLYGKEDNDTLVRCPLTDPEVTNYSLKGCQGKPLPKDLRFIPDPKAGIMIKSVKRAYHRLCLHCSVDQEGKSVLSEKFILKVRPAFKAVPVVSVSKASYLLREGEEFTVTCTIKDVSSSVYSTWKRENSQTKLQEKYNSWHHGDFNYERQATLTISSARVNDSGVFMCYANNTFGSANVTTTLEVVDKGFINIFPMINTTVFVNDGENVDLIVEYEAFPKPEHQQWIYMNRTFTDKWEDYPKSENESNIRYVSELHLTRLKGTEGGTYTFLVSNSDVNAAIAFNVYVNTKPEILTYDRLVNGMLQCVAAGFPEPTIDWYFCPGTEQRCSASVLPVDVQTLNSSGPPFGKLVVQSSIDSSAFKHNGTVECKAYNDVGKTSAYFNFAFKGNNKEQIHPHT

CSF-1R = CSF-1R (UniProt P07333 20-512, limits assumed); test: method not described
Chain of CSF-1R (P07333 20-512 limits assumed): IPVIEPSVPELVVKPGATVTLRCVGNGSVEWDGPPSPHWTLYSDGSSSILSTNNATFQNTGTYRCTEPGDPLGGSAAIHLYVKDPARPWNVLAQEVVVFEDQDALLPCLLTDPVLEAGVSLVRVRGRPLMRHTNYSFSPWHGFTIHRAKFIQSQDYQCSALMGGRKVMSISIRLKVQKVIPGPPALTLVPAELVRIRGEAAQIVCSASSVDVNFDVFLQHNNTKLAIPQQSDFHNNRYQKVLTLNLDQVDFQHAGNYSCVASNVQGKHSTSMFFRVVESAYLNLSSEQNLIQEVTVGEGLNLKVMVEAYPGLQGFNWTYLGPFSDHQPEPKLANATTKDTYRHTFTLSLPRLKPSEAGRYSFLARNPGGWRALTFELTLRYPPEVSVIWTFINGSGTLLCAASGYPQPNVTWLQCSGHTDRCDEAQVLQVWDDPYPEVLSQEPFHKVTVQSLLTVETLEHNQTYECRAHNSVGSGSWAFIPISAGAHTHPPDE

Binder	Proliferation Assay: IC50 ng/ml (1-6-06) [1] [ng/mL]	pTyr Assay: % Inhibition @ 2 µg/ml [1] [%]	Average pTyr Inhibition [2] [%]	further results
B1	4600	92	–	–
B2	–	85	–	–
B3	61.9	84	–	–
B4	> 10000	77	–	–
B5	> 10000	74	–	–
B6	6240	69	–	–
B7	> 10000	65	–	–
B8	–	61	–	–
B9	1020	58	–	–
B10	168	56	–	–
B11	2.2	31	–	–
B12	150	26	–	–
B13	–	-3	–	–
B14	3820	-3	–	–
B15	–	-9	–	–
B16	–	–	> 100	–
B17	–	–	> 100	–
B18	–	–	> 100	–
B19	–	–	> 100	–
B20	–	–	> 100	–
B21	–	–	95	–
B22	–	–	92	–
B23	–	–	91	–
B24	–	–	–	binding result (PDGFR-beta): no binding; binding result (FLT3): no binding; binding result (c-kit): no binding; binding result (CSF-1R): no binding
